Laboratory results: ChEMBL document CHEMBL2074311, “ATP-dependent para-aminohippurate transport by apical multidrug resistance protein MRP2” (Kidney Int, 2000)

B1: ATP-binding cassette sub-family C member 2 (Homo sapiens) (protein)
chain: MLEKFCNSTFWNSSFLDSPEADLPLCFEQTVLVWIPLGYLWLLAPWQLLHVYKSRTKRSSTTKLYLAKQVFVGFLLILAAIELALVLTEDSGQATVPAVRYTNPSLYLGTWLLVLLIQYSRQWCVQKNSWFLSLFWILSILCGTFQFQTLIRTLLQGDNSNLAYSCLFFISYGFQILILIFSAFSENNESSNNPSSIASFLSSITYSWYDSIILKGYKRPLTLEDVWEVDEEMKTKTLVSKFETHMKRELQKARRALQRRQEKSSQQNSGARLPGLNKNQSQSQDALVLEDVEKKKKKSGTKKDVPKSWLMKALFKTFYMVLLKSFLLKLVNDIFTFVSPQLLKLLISFASDRDTYLWIGYLCAILLFTAALIQSFCLQCYFQLCFKLGVKVRTAIMASVYKKALTLSNLARKEYTVGETVNLMSVDAQKLMDVTNFMHMLWSSVLQIVLSIFFLWRELGPSVLAGVGVMVLVIPINAILSTKSKTIQVKNMKNKDKRLKIMNEILSGIKILKYFAWEPSFRDQVQNLRKKELKNLLAFSQLQCVVIFVFQLTPVLVSVVTFSVYVLVDSNNILDAQKAFTSITLFNILRFPLSMLPMMISSMLQASVSTERLEKYLGGDDLDTSAIRHDCNFDKAMQFSEASFTWEHDSEATVRDVNLDIMAGQLVAVIGPVGSGKSSLISAMLGEMENVHGHITIKGTTAYVPQQSWIQNGTIKDNILFGTEFNEKRYQQVLEACALLPDLEMLPGGDLAEIGEKGINLSGGQKQRISLARATYQNLDIYLLDDPLSAVDAHVGKHIFNKVLGPNGLLKGKTRLLVTHSMHFLPQVDEIVVLGNGTIVEKGSYSALLAKKGEFAKNLKTFLRHTGPEEEATVHDGSEEEDDDYGLISSVEEIPEDAASITMRRENSFRRTLSRSSRSNGRHLKSLRNSLKTRNVNSLKEDEELVKGQKLIKKEFIETGKVKFSIYLEYLQAIGLFSIFFIILAFVMNSVAFIGSNLWLSAWTSDSKIFNSTDYPASQRDMRVGVYGALGLAQGIFVFIAHFWSAFGFVHASNILHKQLLNNILRAPMRFFDTTPTGRIVNRFAGDISTVDDTLPQSLRSWITCFLGIISTLVMICMATPVFTIIVIPLGIIYVSVQMFYVSTSRQLRRLDSVTRSPIYSHFSETVSGLPVIRAFEHQQRFLKHNEVRIDTNQKCVFSWITSNRWLAIRLELVGNLTVFFSALMMVIYRDTLSGDTVGFVLSNALNITQTLNWLVRMTSEIETNIVAVERITEYTKVENEAPWVTDKRPPPDWPSKGKIQFNNYQVRYRPELDLVLRGITCDIGSMEKIGVVGRTGAGKSSLTNCLFRILEAAGGQIIIDGVDIASIGLHDLREKLTIIPQDPILFSGSLRMNLDPFNNYSDEEIWKALELAHLKSFVASLQLGLSHEVTEAGGNLSIGQRQLLCLGRALLRKSKILVLDEATAAVDLETDNLIQTTIQNEFAHCTVITIAHRLHTIMDSDKVMVLDNGKIIECGSPEELLQIPGPFYFMAKEAGIENVNSTKF
B2: Multidrug resistance-associated protein 1 (Homo sapiens) (protein)
chain: MALRGFCSADGSDPLWDWNVTWNTSNPDFTKCFQNTVLVWVPCFYLWACFPFYFLYLSRHDRGYIQMTPLNKTKTALGFLLWIVCWADLFYSFWERSRGIFLAPVFLVSPTLLGITMLLATFLIQLERRKGVQSSGIMLTFWLVALVCALAILRSKIMTALKEDAQVDLFRDITFYVYFSLLLIQLVLSCFSDRSPLFSETIHDPNPCPESSASFLSRITFWWITGLIVRGYRQPLEGSDLWSLNKEDTSEQVVPVLVKNWKKECAKTRKQPVKVVYSSKDPAQPKESSKVDANEEVEALIVKSPQKEWNPSLFKVLYKTFGPYFLMSFFFKAIHDLMMFSGPQILKLLIKFVNDTKAPDWQGYFYTVLLFVTACLQTLVLHQYFHICFVSGMRIKTAVIGAVYRKALVITNSARKSSTVGEIVNLMSVDAQRFMDLATYINMIWSAPLQVILALYLLWLNLGPSVLAGVAVMVLMVPVNAVMAMKTKTYQVAHMKSKDNRIKLMNEILNGIKVLKLYAWELAFKDKVLAIRQEELKVLKKSAYLSAVGTFTWVCTPFLVALCTFAVYVTIDENNILDAQTAFVSLALFNILRFPLNILPMVISSIVQASVSLKRLRIFLSHEELEPDSIERRPVKDGGGTNSITVRNATFTWARSDPPTLNGITFSIPEGALVAVVGQVGCGKSSLLSALLAEMDKVEGHVAIKGSVAYVPQQAWIQNDSLRENILFGCQLEEPYYRSVIQACALLPDLEILPSGDRTEIGEKGVNLSGGQKQRVSLARAVYSNADIYLFDDPLSAVDAHVGKHIFENVIGPKGMLKNKTRILVTHSMSYLPQVDVIIVMSGGKISEMGSYQELLARDGAFAEFLRTYASTEQEQDAEENGVTGVSGPGKEAKQMENGMLVTDSAGKQLQRQLSSSSSYSGDISRHHNSTAELQKAEAKKEETWKLMEADKAQTGQVKLSVYWDYMKAIGLFISFLSIFLFMCNHVSALASNYWLSLWTDDPIVNGTQEHTKVRLSVYGALGISQGIAVFGYSMAVSIGGILASRCLHVDLLHSILRSPMSFFERTPSGNLVNRFSKELDTVDSMIPEVIKMFMGSLFNVIGACIVILLATPIAAIIIPPLGLIYFFVQRFYVASSRQLKRLESVSRSPVYSHFNETLLGVSVIRAFEEQERFIHQSDLKVDENQKAYYPSIVANRWLAVRLECVGNCIVLFAALFAVISRHSLSAGLVGLSVSYSLQVTTYLNWLVRMSSEMETNIVAVERLKEYSETEKEAPWQIQETAPPSSWPQVGRVEFRNYCLRYREDLDFVLRHINVTINGGEKVGIVGRTGAGKSSLTLGLFRINESAEGEIIIDGINIAKIGLHDLRFKITIIPQDPVLFSGSLRMNLDPFSQYSDEEVWTSLELAHLKDFVSALPDKLDHECAEGGENLSVGQRQLVCLARALLRKTKILVLDEATAAVDLETDDLIQSTIRTQFEDCTVLTIAHRLNTIMDYTRVIVLDKGEIQEYGAPSDLLQQRGLFYSMAKDAGLV

Tests used:
[1] = substrate: Nc1ccc(C(=O)NCC(=O)O)cc1; test: TP_TRANSPORTER: uptake in membrane vesicles from MRP2-expressing HEK cells; assay type: functional, cell membranes, HEK293, Membrane vesicle
[2] = substrate: Nc1ccc(C(=O)NCC(=O)O)cc1; test: TP_TRANSPORTER: uptake in membrane vesicle from MRP1-expressing HeLa cells; assay type: functional, cell membranes

Protein	Km [1] [µM]	Km [2] [µM]
B1	880	–
B2	–	372
